Assay results: US20250143272A1

Key:
[1] = biological target: mouse NKP46 (NCR1) protein, NP_034876.2 (mouse) (UniProt Q8C567); experiment: flow cytometry, spleen NK cells of NKP46 humanized heterozygous mouse (cells carry mouse and humanized NKP46)
[2] = biological target: mouse NKP46 (NCR1) protein, NP_034876.2 (mouse) (UniProt Q8C567); experiment: flow cytometry, spleen NK cells of C57BL/6 wild-type mouse
[3] = biological target: humanized NKP46 protein (engineered mouse NKP46 after humanization) (human/mouse chimera (human NKP46 amino acids 2-253 replacing mouse 2-253; rest mouse)); experiment: flow cytometry, spleen NK cells of NKP46 humanized homozygous mouse
Chain of humanized NKP46 protein (engineered mouse NKP46 after humanization) (human/mouse chimera (human NKP46 amino acids 2-253 replacing mouse 2-253; rest mouse)) (chain, as listed by the source mutant limits assumed): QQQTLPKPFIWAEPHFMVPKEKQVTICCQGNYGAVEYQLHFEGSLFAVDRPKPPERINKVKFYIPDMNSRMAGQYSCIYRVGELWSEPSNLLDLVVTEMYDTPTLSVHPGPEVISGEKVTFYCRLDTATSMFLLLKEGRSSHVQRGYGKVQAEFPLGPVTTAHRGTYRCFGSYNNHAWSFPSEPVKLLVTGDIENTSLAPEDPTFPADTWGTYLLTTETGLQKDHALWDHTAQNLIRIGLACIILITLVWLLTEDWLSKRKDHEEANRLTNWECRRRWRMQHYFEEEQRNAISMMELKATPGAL

[4] = biological target: mouse NKP46 (NCR1) protein, NP_034876.2 (mouse) (UniProt Q8C567); experiment: flow cytometry, peripheral blood NK cells of C57BL/6 wild-type mouse
[5] = biological target: mouse NKP46 (NCR1) protein, NP_034876.2 (mouse) (UniProt Q8C567); experiment: flow cytometry, spleen NK cells of C57BL/6 wild-type mouse; remark: listed apart in the source
[6] = biological target: mouse NKP46 (NCR1) protein, NP_034876.2 (mouse) (UniProt Q8C567); experiment: flow cytometry, peripheral blood NK cells of NKP46 humanized heterozygous mouse (cells carry mouse and humanized NKP46)
[7] = biological target: humanized NKP46 protein (engineered mouse NKP46 after humanization) (human/mouse chimera (human NKP46 amino acids 2-253 replacing mouse 2-253; rest mouse)); experiment: flow cytometry, peripheral blood NK cells of NKP46 humanized homozygous mouse
[8] = biological target: mouse NKP46 (NCR1) protein, NP_034876.2 (mouse) (UniProt Q8C567); experiment: flow cytometry, peripheral blood NK cells of C57BL/6 wild-type mouse; remark: listed apart in the source
[9] = biological target: humanized NKP46 protein (engineered mouse NKP46 after humanization) (human/mouse chimera (human NKP46 amino acids 2-253 replacing mouse 2-253; rest mouse)); experiment: flow cytometry, spleen NK cells of NKP46 humanized heterozygous mouse
[10] = biological target: humanized NKP46 protein (engineered mouse NKP46 after humanization) (human/mouse chimera (human NKP46 amino acids 2-253 replacing mouse 2-253; rest mouse)); experiment: flow cytometry, peripheral blood NK cells of NKP46 humanized heterozygous mouse

Chain of UniProt Q8C567 (Q8C567 17-325 R131Q): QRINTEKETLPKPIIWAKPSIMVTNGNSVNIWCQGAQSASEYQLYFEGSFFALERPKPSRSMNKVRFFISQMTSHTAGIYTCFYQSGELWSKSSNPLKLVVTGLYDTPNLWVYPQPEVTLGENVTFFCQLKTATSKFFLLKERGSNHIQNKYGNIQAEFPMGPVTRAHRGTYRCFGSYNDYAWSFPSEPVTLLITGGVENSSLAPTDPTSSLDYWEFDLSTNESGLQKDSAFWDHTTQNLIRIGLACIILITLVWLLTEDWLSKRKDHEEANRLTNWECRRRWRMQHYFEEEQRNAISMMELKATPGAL

% mCD45+ mNK1.1+ mNKP46+ cells [1] [%]	% mCD45+ mNK1.1+ mNKP46+ cells [2] [%]	% mCD45+ mNK1.1+ mNKP46+ cells [3] [%]	% mCD45+ mNK1.1+ mNKP46+ cells [4] [%]	% mCD45+ mNK1.1+ mNKP46+ cells [5] [%]	% mCD45+ mNK1.1+ mNKP46+ cells [6] [%]	% mCD45+ mNK1.1+ mNKP46+ cells [7] [%]	% mCD45+ mNK1.1+ mNKP46+ cells [8] [%]	% mCD45+ mNK1.1+ hNKP46+ cells [2] [%]	% mCD45+ mNK1.1+ hNKP46+ cells [3] [%]	% mCD45+ mNK1.1+ hNKP46+ cells [4] [%]	% mCD45+ mNK1.1+ hNKP46+ cells [5] [%]	% mCD45+ mNK1.1+ hNKP46+ cells [9] [%]	% mCD45+ mNK1.1+ hNKP46+ cells [7] [%]	% mCD45+ mNK1.1+ hNKP46+ cells [8] [%]	% mCD45+ mNK1.1+ hNKP46+ cells [10] [%]	Substance
3.44	2.25	0.035	2.81	4.21	4.33	0.009	3.96									APC anti-mouse CD335 (NKP46) Antibody (BioLegend, Catalog number: 137607)
								0.11	2.79	0.034	0.14	4.08	3.55	0.056	4.95	PE anti-human CD335 (NKP46) Antibody (BioLegend, Catalog number: 331907)
